“And” between values parts separate entries of the source, which are not always exact repeats. Equal entries are not always repeated.
Assays:
human CD64 = target: T1, human CD64 (human, UniProt P12314 16-288, limits assumed); experiment: SPR, average
T1 construct: also called FcγRI
Procedure: Binding analyses as described in this Example were performed using SPR, as described in Example 4.

[1] = target: T2, cynomolgus NKG2D (recombinant mFc-tagged dimer) (cynomolgus, UniProt P61252 78-216); experiment: SPR, 1:1 kinetic fit, average
T2 construct: also called cyno NKG2D
T2 sequence (looked up): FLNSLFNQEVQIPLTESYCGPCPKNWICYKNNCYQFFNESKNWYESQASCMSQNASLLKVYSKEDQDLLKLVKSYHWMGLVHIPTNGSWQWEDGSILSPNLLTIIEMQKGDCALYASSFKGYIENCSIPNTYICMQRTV
Text: NKG2D is a native dimer, therefore recombinant mFc-tagged NKG2D dimer was used for this experiment. Two different fits were utilized to obtain the equilibrium affinity data: steady state affinity fit and kinetic fit.

[2] = target: T3, human NKG2D (recombinant mFc-tagged dimer) (human, UniProt P26718 78-216); experiment: SPR, high concentration sample, control
T3 construct: also called hNKG2D
T3 sequence (looked up): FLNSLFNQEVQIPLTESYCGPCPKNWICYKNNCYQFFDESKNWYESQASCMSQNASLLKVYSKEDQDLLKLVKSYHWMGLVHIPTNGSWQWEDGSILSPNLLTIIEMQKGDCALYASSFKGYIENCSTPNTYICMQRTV

[3] = target: T4, human BAFF-R expressed on cells (human, UniProt Q96RJ3 1-184); experiment: flow cytometry, BJAB cells
T4 construct: Cell surface BAFF-R, endogenous on B cell lines and primary B cells or overexpressed on isogenic CHO cells; also called hBAFF-R; hBAFF-R-CHO

[4] = target: T4, human BAFF-R expressed on cells; experiment: cell-based or functional assay
human CD16a V158 = target: T5, human CD16a V158 (human, UniProt P08637 17-208); experiment: SPR
T5 construct: also called hCD16aV; hCD16a V158

[5] = target: T4, human BAFF-R expressed on cells; experiment: flow cytometry, Jeko-1 cells
human CD32a R131 [6] = target: T6, human CD32a R131 (human, UniProt P12318 36-218, limits assumed); experiment: SPR, steady state, average
T6 construct: also called FcγRIIa R131
T6 sequence (looked up): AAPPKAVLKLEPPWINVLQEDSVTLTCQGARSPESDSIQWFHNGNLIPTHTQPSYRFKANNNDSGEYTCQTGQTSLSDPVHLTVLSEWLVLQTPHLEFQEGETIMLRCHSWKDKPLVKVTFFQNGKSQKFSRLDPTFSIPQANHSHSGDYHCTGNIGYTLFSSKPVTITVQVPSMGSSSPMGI

[7] = target: T3, human NKG2D (recombinant mFc-tagged …); experiment: SPR, steady state, after 4 weeks at 40 °C
human CD16a F158 = human CD16a F158 (human, UniProt P08637 17-208); experiment: SPR, steady state, average
[8] = target: T4, human BAFF-R expressed on cells; experiment: flow cytometry, Rs4;11 cells
cynomolgus FcRn = target: T7, cynomolgus FcRn (cynomolgus, UniProt Q8SPV9 24-297; Q8SPW0 21-119); experiment: SPR, pH 6.0, steady state; pH 6.0; third replicate
T7 construct: also called Cyno FcRn

[9] = target: T3, human NKG2D (recombinant mFc-tagged …); experiment: SPR, steady state, control
[10] = target: T4, human BAFF-R expressed on cells; experiment: flow cytometry, BJAB cells, after 4 weeks at 40 °C
human FcRn [11] = target: T8, human FcRn (human, UniProt P55899 24-297; P61769 21-119); experiment: SPR, pH 6.0, steady state; pH 6.0; first replicate
[12] = target: T2, cynomolgus NKG2D (recombinant …); experiment: SPR, kinetics fit
Text: Two different fits were utilized to obtain the equilibrium affinity data: steady state affinity fit and kinetic fit.

[13] = target: T4, human BAFF-R expressed on cells; experiment: flow cytometry, Raji cells
[14] = target: T4, human BAFF-R expressed on cells; experiment: flow cytometry, SUDHL-6 cells
human CD16b = target: T9, human CD16b (human, UniProt O75015 17-200, limits assumed); experiment: SPR, steady state
T9 construct: also called FcγRIIIb

[15] = target: T10, cynomolgus monkey BAFF-R expressed on cells (cynomolgus monkey); experiment: flow cytometry, CHO-cBAFF-R cells
T10 construct: whole, on cells; also called cBAFF-R; cynoBAFF-R

cynomolgus CD16 [16] = target: T11, cynomolgus CD16 (cynomolgus, UniProt Q8SPW2 17-208, limits assumed); experiment: SPR
T11 construct: also called Cyno CD16; cynomolgus FcγRIII

cynomolgus CD16 [17] = target: T11, cynomolgus CD16; experiment: SPR, kinetic fit, average
human CD32a R131 [18] = target: T6, human CD32a R131; experiment: SPR, steady state
cynomolgus CD16 [19] = target: T11, cynomolgus CD16; experiment: SPR, kinetic fit; first replicate, kinetic fit
human FcRn [20] = target: T8, human FcRn; experiment: SPR, pH 6.0, steady state; pH 6.0; fourth replicate

T11 sequence (Q8SPW2 17-208 limits assumed): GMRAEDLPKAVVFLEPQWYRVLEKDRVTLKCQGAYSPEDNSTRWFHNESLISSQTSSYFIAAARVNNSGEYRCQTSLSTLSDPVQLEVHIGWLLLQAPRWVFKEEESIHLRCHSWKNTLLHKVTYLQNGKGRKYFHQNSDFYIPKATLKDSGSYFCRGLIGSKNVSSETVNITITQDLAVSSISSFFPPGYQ
T9 sequence (O75015 17-200 limits assumed): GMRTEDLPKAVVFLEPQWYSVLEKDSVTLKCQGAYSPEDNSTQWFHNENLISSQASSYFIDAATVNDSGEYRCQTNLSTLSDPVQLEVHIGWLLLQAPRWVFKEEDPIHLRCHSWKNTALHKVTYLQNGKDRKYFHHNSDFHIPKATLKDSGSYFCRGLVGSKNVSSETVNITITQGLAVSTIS
T5 sequence (P08637 17-208 F176V limits assumed): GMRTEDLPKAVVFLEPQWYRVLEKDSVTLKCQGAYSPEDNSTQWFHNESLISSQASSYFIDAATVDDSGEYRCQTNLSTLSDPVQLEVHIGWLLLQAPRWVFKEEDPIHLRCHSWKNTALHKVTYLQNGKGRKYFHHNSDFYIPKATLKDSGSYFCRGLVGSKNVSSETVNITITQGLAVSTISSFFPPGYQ
T1 sequence (P12314 16-288 limits assumed): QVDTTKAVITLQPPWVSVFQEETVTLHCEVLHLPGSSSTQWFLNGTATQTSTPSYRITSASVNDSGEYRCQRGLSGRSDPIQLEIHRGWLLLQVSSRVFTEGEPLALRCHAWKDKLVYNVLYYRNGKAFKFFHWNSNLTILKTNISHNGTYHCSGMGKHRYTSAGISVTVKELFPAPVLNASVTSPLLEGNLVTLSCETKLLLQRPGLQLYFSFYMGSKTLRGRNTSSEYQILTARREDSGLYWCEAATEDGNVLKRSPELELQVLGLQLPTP
T8 sequence (P55899 24-297 limits assumed, chain 1 of 2): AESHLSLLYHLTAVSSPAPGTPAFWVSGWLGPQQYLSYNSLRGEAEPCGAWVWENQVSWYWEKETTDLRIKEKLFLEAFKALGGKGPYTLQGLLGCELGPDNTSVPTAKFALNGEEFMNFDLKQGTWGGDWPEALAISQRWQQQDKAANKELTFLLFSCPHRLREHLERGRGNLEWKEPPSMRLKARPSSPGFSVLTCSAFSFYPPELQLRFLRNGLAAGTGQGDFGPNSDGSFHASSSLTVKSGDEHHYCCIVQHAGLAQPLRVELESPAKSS
T8 sequence (P61769 21-119 limits assumed, chain 2 of 2): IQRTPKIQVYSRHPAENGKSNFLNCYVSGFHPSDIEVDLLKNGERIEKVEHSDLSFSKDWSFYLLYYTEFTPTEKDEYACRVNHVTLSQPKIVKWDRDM
human CD16a F158, sequence (P08637 17-208 limits assumed): as the sequence (P08637 17-208 F176V limits assumed) above, with V160F counted along it
T7 sequence (Q8SPV9 24-297 limits assumed, chain 1 of 2): as the sequence (P55899 24-297 limits assumed, chain 1 of 2) above, with N39D, E44Q, G99S, S189G, S190N, L217M, S269T counted along it
T7 sequence (Q8SPW0 21-119 limits assumed, chain 2 of 2): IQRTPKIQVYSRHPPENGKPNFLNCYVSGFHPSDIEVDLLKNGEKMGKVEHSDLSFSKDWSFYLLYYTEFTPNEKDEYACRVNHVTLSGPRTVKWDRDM

B1: AB1424/AB1612 F3′ TriNKET (bispecific antibody, human IgG1, kappa)
chain: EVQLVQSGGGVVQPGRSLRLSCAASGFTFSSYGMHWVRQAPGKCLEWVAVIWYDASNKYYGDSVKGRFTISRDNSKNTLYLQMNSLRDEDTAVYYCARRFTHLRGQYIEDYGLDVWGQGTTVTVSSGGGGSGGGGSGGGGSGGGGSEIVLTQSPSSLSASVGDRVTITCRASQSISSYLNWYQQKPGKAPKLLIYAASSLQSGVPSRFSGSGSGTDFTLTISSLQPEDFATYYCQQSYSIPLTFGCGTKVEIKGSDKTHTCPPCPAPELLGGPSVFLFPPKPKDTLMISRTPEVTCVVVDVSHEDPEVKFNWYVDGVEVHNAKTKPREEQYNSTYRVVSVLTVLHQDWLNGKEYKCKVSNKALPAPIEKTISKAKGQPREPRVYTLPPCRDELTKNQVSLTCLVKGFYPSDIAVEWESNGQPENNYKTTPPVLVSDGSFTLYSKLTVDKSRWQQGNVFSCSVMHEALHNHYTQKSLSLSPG
heavy: EVQLVESGGGLVKPGGSLRLSCAASGFTFSSYSMNWVRQAPGKGLEWVSSISSSSSYIYYADSVKGRFTISRDNAKNSLYLQMNSLRAEDTAVYYCARGAPIGAAAGWFDPWGQGTLVTVSSASTKGPSVFPLAPSSKSTSGGTAALGCLVKDYFPEPVTVSWNSGALTSGVHTFPAVLQSSGLYSLSSVVTVPSSSLGTQTYICNVNHKPSNTKVDKKVEPKSCDKTHTCPPCPAPELLGGPSVFLFPPKPKDTLMISRTPEVTCVVVDVSHEDPEVKFNWYVDGVEVHNAKTKPREEQYNSTYRVVSVLTVLHQDWLNGKEYKCKVSNKALPAPIEKTISKAKGQPREPQVCTLPPSRDELTENQVSLTCLVKGFYPSDIAVEWESNGQPENNYKTTPPVLDSDGSFFLYSWLTVDKSRWQQGNVFSCSVMHEALHNHYTQKSLSLSPG
light: DIQMTQSPSSVSASVGDRVTITCRASQGISSWLAWYQQKPGKAPKLLIYAASSLQSGVPSRFSGSGSGTDFTLTISSLQPEDFATYYCQQGVSFPRTFGGGTKVEIKRTVAAPSVFIFPPSDEQLKSGTASVVCLLNNFYPREAKVQWKVDNALQSGNSQESVTEQDSKDSTYSLSSTLTLSKADYEKHKVYACEVTHQGLSSPVTKSFNRGEC
notes: Chain S: anti-BAFF-R scFv-CH2-CH3; chain H: anti-NKG2D VH-CH1-CH2-CH3; chain L: anti-NKG2D VL-CL; also called AB1612-002
Question: With B1 as the binder, how does the Kd (human CD64) read?
Answer: 3.2 nM

Question: What about the koff (human CD64) of the same binder?
Answer: 0.00023 s⁻¹

Question: What about the kon (human CD64) of the same binder?
Answer: 73000 M⁻¹ s⁻¹

Question: What about the Kd [1] of the same binder?
Answer: 517 nM

Question: And the koff [2]?
Answer: 0.11 s⁻¹

Question: And the kon [2]?
Answer: 220000 M⁻¹ s⁻¹

Question: What about the EC50 [3] of the same binder?
Answer: 0.37 nM

Question: And the “Max FOB” value [3]?
Answer: 16 fold over background

Question: What about the “lysis of BJAB target cells by rested primary human NK cells, EC50” value [4] of the same binder?
Answer: 0.06 nM

Question: And the “specific lysis of BAFF-R+ target cells by KHYG-1-CD16V effector cells, EC50” value [4]?
Answer: 0.05 nM

Question: What about the koff (human CD16a V158) of the same binder?
Answer: 0.014 s⁻¹ and 0.013 s⁻¹

Question: What about the kon (human CD16a V158) of the same binder?
Answer: 110000 M⁻¹ s⁻¹ and 100000 M⁻¹ s⁻¹

Question: What about the EC50 [5] of the same binder?
Answer: 0.13 nM

Question: What about the “Max FOB” value [5] of the same binder?
Answer: 7 fold over background

Question: And the Kd (human CD32a R131 [6])?
Answer: 1400 nM

Question: What about the Kd [7] of the same binder?
Answer: 522 nM

Question: And the Kd (human CD16a F158)?
Answer: 1350 nM

Question: And the EC50 [8]?
Answer: 0.09 nM

Question: What about the “Max FOB” value [8] of the same binder?
Answer: 4 fold over background

Question: And the Kd (cynomolgus FcRn)?
Answer: 1000 nM

Question: And the Kd [9]?
Answer: 544 nM

Question: And the EC50 [10]?
Answer: 0.83 nM

Question: What about the Kd (human FcRn [11]) of the same binder?
Answer: 1000 nM

Question: What about the Kd [12] of the same binder?
Answer: 609 nM and 617 nM and 572 nM and 587 nM

Question: What about the EC50 [13] of the same binder?
Answer: 0.18 nM

Question: And the “Max FOB” value [13]?
Answer: 10 fold over background

Question: What about the EC50 [14] of the same binder?
Answer: 0.41 nM

Question: What about the “Max FOB” value [14] of the same binder?
Answer: 19 fold over background

Question: And the Kd (human CD16b)?
Answer: 7000 nM and 6300 nM and 7900 nM and 6400 nM

Question: What about the EC50 [15] of the same binder?
Answer: 0.96 nM

Question: What about the “Max FOB” value [15] of the same binder?
Answer: 67 fold over background

Question: What about the Kd (cynomolgus CD16 [16]) of the same binder?
Answer: 261 nM and 269 nM and 283 nM and 260 nM

Question: What about the koff (cynomolgus CD16 [16]) of the same binder?
Answer: 0.02 s⁻¹ and 0.021 s⁻¹

Question: And the kon (cynomolgus CD16 [16])?
Answer: 78000 M⁻¹ s⁻¹ and 72000 M⁻¹ s⁻¹

Question: And the Kd (cynomolgus CD16 [17])?
Answer: 271 nM

Question: What about the Kd (human CD32a R131 [18]) of the same binder?
Answer: 1500 nM and 1300 nM and 1200 nM

Question: What about the Kd (cynomolgus CD16 [19]) of the same binder?
Answer: 261 nM

Question: And the Kd (human FcRn [20])?
Answer: 1100 nM
